Measured values taken from US20190177730.

Legend:
[1] = target: T1, PCSK9 D374Y D374Y (Homo sapiens) (UniProt Q8NBP7+Q8NBP7); assay: filter; details: all C = PP-dC (5-position), all U = Nap-dU (5-position); aptamer identity per figure legend; text names 11733-198
[2] = target: T1, PCSK9 D374Y D374Y (Homo sapiens); assay: inhibition; details: all C = PP-dC (5-position), all U = Nap-dU (5-position); blocks PCSK9 D374Y binding to LDL-R, room temperature; text names 11733-198

T1 sequence (Q8NBP7 whole entry, stated change not applied, chain 1 of 2): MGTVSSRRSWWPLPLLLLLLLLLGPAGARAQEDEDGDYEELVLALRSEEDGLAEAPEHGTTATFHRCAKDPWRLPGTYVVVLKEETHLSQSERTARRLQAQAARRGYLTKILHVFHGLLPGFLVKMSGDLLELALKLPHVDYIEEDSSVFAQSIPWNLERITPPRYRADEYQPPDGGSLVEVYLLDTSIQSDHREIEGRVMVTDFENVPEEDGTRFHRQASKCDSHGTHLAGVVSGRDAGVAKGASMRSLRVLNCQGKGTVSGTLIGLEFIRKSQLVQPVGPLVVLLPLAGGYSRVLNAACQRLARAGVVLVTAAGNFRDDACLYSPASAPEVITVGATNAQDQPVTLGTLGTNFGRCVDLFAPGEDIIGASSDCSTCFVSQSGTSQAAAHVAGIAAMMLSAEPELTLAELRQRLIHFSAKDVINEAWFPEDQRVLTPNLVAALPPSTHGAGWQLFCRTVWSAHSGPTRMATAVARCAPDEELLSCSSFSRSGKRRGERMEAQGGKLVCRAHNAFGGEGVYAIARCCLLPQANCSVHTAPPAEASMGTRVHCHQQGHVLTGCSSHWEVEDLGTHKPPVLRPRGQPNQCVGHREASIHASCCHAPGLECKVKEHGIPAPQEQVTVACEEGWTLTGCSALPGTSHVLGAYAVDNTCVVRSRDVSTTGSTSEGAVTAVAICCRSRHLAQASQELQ
T1 sequence (Q8NBP7 whole entry, stated change not applied, chain 2 of 2): as the sequence (Q8NBP7 whole entry, stated change not applied, chain 1 of 2) above

**Q.** For “AACGUACUUUAAGGCCUAUUGAGGAAACUC [11733-44 (SL1063)]”, which Kd [1] is on record?
**A.** 0.0052 nM

**Q.** What about the EC50 [2] of the same sequence?
**A.** 3.6 nM
